Substitutions are numbered along the chain they refer to.

First the molecules themselves.
B1: AS170036 VL1VH1-56N98F108S (scFv)
scFv: QSALTQPRSVSGSPGQSVTISCAGTSSDVGSENYVSWYQQHPGKAPKLMIYQVNKRASGVPDRFSGSKSGNTASLTISGLQAEDEADYYCASYRSSDFNIVFGGGTKLTVLGGGGSGGGGSGGGGSEVQLVESGGGLVQPGGSLRLSCAASGFTFSSYAMSWVRQAPGKGLEWVSTINSGTNSPYYADSVKGRFTISRDNSKNTLYLQMNSLRAEDTAVYYCAKNFFDGSWFLSPPAMDYWGQGTLVTVSSHHHHHH
notes: also called 51-AS170036 VL1VH1-56N98F108S
B2: AS170036 VL1VH1-57K98Q108A (scFv)
scFv: B1 scFv with F98Q, N182G, S183K, S234A
notes: also called 73-AS170036 VL1VH1-57K98Q108A
B3: AS170036 VL1VH1-57K98Q108D (scFv)
scFv: B1 scFv with F98Q, N182G, S183K, S234D
notes: also called 74-AS170036 VL1VH1-57K98Q108D
B4: AS170036 VL1VH1-56Y98I108D (scFv)
scFv: B1 scFv with F98I, N182Y, S234D
notes: also called 44-AS170036 VL1VH1-56Y98I108D
B5: AS170036 VL1VH1-56Y98I108S (scFv)
scFv: B1 scFv with F98I, N182Y
notes: also called 45-AS170036 VL1VH1-56Y98I108S
B6: AS170036 VL1VH1-57H98I108D (scFv)
scFv: B1 scFv with F98I, N182G, S183H, S234D
notes: also called 62-AS170036 VL1VH1-57H98I108D
B7: AS170036 VL1VH1-56N98Q108D (scFv)
scFv: B1 scFv with F98Q, S234D
notes: also called 56-AS170036 VL1VH1-56N98Q108D
B8: AS170036 VL1VH1-57H98F108S (scFv)
scFv: B1 scFv with N182G, S183H
notes: also called 60-AS170036 VL1VH1-57H98F108S
B9: AS170036 VL1VH1-56N98Q108S (scFv)
scFv: B1 scFv with F98Q
notes: also called 57-AS170036 VL1VH1-56N98Q108S
B10: AS170036 VL1VH1-56N98I108A (scFv)
scFv: B1 scFv with F98I, S234A
notes: also called 52-AS170036 VL1VH1-56N98I108A
B11: AS170036 VL1VH1-57H98I108S (scFv)
scFv: B1 scFv with F98I, N182G, S183H
notes: also called 63-AS170036 VL1VH1-57H98I108S
B12: AS170036 VL1VH1-57K98F108D (scFv)
scFv: B1 scFv with N182G, S183K, S234D
notes: also called 68-AS170036 VL1VH1-57K98F108D
B13: AS170036 VL1VH1-56Y98Q108S (scFv)
scFv: B1 scFv with F98Q, N182Y
notes: also called 48-AS170036 VL1VH1-56Y98Q108S
B14: AS170036 VL1VH1-57H98F108A (scFv)
scFv: B1 scFv with N182G, S183H, S234A
notes: also called 58-AS170036 VL1VH1-57H98F108A
B15: AS170036 VL1VH1-56Y98Q108A (scFv)
scFv: B1 scFv with F98Q, N182Y, S234A
notes: also called 46-AS170036 VL1VH1-56Y98Q108A
B16: AS170036 VL1VH1-57H98Q108A (scFv)
scFv: B1 scFv with F98Q, N182G, S183H, S234A
notes: also called 64-AS170036 VL1VH1-57H98Q108A
B17: AS170036 VL1VH1-57K98I108D (scFv)
scFv: B1 scFv with F98I, N182G, S183K, S234D
notes: also called 71-AS170036 VL1VH1-57K98I108D
B18: AS170036 VL1VH1-57H98F108D (scFv)
scFv: B1 scFv with N182G, S183H, S234D
notes: also called 59-AS170036 VL1VH1-57H98F108D
B19: AS170036 VL1VH1-56N98I108D (scFv)
scFv: B1 scFv with F98I, S234D
notes: also called 53-AS170036 VL1VH1-56N98I108D
B20: AS170036 VL1VH1-56Y98F108A (scFv)
scFv: B1 scFv with N182Y, S234A
notes: also called 40-AS170036 VL1VH1-56Y98F108A
B21: AS170036 VL1VH1-57K98I108A (scFv)
scFv: B1 scFv with F98I, N182G, S183K, S234A
notes: also called 70-AS170036 VL1VH1-57K98I108A
B22: AS170036 VL1VH1-57H98I108A (scFv)
scFv: B1 scFv with F98I, N182G, S183H, S234A
notes: also called 61-AS170036 VL1VH1-57H98I108A
B23: AS170036 VL1VH1-56Y98I108A (scFv)
scFv: B1 scFv with F98I, N182Y, S234A
notes: also called 43-AS170036 VL1VH1-56Y98I108A
B24: AS170036 VL1VH1-57H98Q108S (scFv)
scFv: B1 scFv with F98Q, N182G, S183H
notes: also called 66-AS170036 VL1VH1-57H98Q108S
B25: AS170036 VL1VH1-56Y98F108D (scFv)
scFv: B1 scFv with N182Y, S234D
notes: also called 41-AS170036 VL1VH1-56Y98F108D
B26: AS170036 VL1VH1-56Y98Q108D (scFv)
scFv: B1 scFv with F98Q, N182Y, S234D
notes: also called 47-AS170036 VL1VH1-56Y98Q108D
B27: AS170036 VL1VH1-57K98I108S (scFv)
scFv: B1 scFv with F98I, N182G, S183K
notes: also called 72-AS170036 VL1VH1-57K98I108S
B28: AS170036 VL1VH1-57K98F108A (scFv)
scFv: B1 scFv with N182G, S183K, S234A
notes: also called 67-AS170036 VL1VH1-57K98F108A
B29: AS170036 VL1VH1-56N98I108S (scFv)
scFv: B1 scFv with F98I
notes: also called 54-AS170036 VL1VH1-56N98I108S
B30: AS170036 VL1VH1-57H98Q108D (scFv)
scFv: B1 scFv with F98Q, N182G, S183H, S234D
notes: also called 65-AS170036 VL1VH1-57H98Q108D
B31: AS170036 VL1VH1-57K98F108S (scFv)
scFv: B1 scFv with N182G, S183K
notes: also called 69-AS170036 VL1VH1-57K98F108S
B32: AS170036 VL1VH1-56Y98F108S (scFv)
scFv: B1 scFv with N182Y
notes: also called 42-AS170036 VL1VH1-56Y98F108S
B33: AS170036 VL1VH1-56N98Q108A (scFv)
scFv: B1 scFv with F98Q, S234A
notes: also called 55-AS170036 VL1VH1-56N98Q108A

The first test deals with T1, AFP158/HLA-A*02:01 complex (human).
T1 construct: flowed as analyte in SPR
The test can be described thus: SPR, crude scFv captured, pMHC analyte.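 Note: complex injected at several concentrations over the chip, association phase then running buffer for dissociation, KD derived from on- and off-rates computed from both curves.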 In general terms: Surface plasmon resonance follows binding to a sensor surface in real time, without labels.
The Kd is the constant that tells how readily two partners part at equilibrium. The koff is the first-order rate constant of dissociation. A low value points to a long-lived complex. One may read the kon as the second-order rate constant of association. B1 registered a dissociation constant Kd of 13 nM, a dissociation rate constant (koff) of 0.0028 s⁻¹ and a kon of 210000 M⁻¹ s⁻¹.
On the same counts, the results for B2 are 2.8 nM, 0.00053 s⁻¹ and 190000 M⁻¹ s⁻¹.
For B3 the same measures were 3.8 nM, 0.00077 s⁻¹ and 200000 M⁻¹ s⁻¹.
On the same counts, the results for B4 are 1.5 nM, 0.00038 s⁻¹ and 260000 M⁻¹ s⁻¹.
On to B5, for which the Kd is 2.8 nM, the koff worked out at 0.0005 s⁻¹ and the on-rate constant (kon) stood at 180000 M⁻¹ s⁻¹.
For B6 the same measures were 4.9 nM, 0.0012 s⁻¹ and 250000 M⁻¹ s⁻¹.
On the same counts, the results for B7 are 5.8 nM, 0.0015 s⁻¹ and 260000 M⁻¹ s⁻¹.
For B8 the same measures were 3.4 nM, 0.00068 s⁻¹ and 200000 M⁻¹ s⁻¹.
Consider B9, for which the Kd came out at 11 nM, the dissociation rate constant (koff) turned out to be 0.0019 s⁻¹ and the association rate constant (kon) was 180000 M⁻¹ s⁻¹.
On the same counts, the results for B10 are 3.6 nM, 0.00093 s⁻¹ and 260000 M⁻¹ s⁻¹.
B11 gave a Kd of 8.5 nM, an off-rate constant (koff) of 0.0014 s⁻¹ and a kon of 160000 M⁻¹ s⁻¹.
For B12 the same measures were 4.1 nM, 0.001 s⁻¹ and 250000 M⁻¹ s⁻¹.
On the same counts, the results for B13 are 3.3 nM, 0.00055 s⁻¹ and 160000 M⁻¹ s⁻¹.
On the same counts, the results for B14 are 1.5 nM, 0.0004 s⁻¹ and 260000 M⁻¹ s⁻¹.
The molecule B15 registered a Kd of 1.2 nM, a koff of 0.00028 s⁻¹ and a kon of 230000 M⁻¹ s⁻¹.
For B16 the same measures were 1.8 nM, 0.00041 s⁻¹ and 230000 M⁻¹ s⁻¹.
On the same counts, the results for B17 are 5.8 nM, 0.0012 s⁻¹ and 210000 M⁻¹ s⁻¹.
On the same counts, the results for B18 are 1.8 nM, 0.00053 s⁻¹ and 290000 M⁻¹ s⁻¹.
In turn, B19 returned a dissociation constant (Kd) of 5.1 nM, a koff of 0.0014 s⁻¹ and a kon of 280000 M⁻¹ s⁻¹.
Consider B20, for which the dissociation constant (Kd) was 1.6 nM, the off-rate (koff) was found to be 0.00038 s⁻¹ and the on-rate constant (kon) is 240000 M⁻¹ s⁻¹.
For B21 the same measures were 4.3 nM, 0.00082 s⁻¹ and 190000 M⁻¹ s⁻¹.
On the same counts, the results for B22 are 3.3 nM, 0.00076 s⁻¹ and 230000 M⁻¹ s⁻¹.
On to B23, for which the Kd was 1.1 nM, the dissociation rate constant (koff) came out at 0.00025 s⁻¹ and the on-rate (kon) was determined as 240000 M⁻¹ s⁻¹.
For B24 the same measures were 4 nM, 0.00065 s⁻¹ and 160000 M⁻¹ s⁻¹.
On the same counts, the results for B25 are 2 nM, 0.00054 s⁻¹ and 270000 M⁻¹ s⁻¹.
Turning to B26, the dissociation constant Kd is 1.8 nM, the koff is 0.00044 s⁻¹ and the kon is 240000 M⁻¹ s⁻¹.
On the same counts, the results for B27 are 11 nM, 0.0013 s⁻¹ and 120000 M⁻¹ s⁻¹.
For the molecule B28, binding was characterised by a dissociation constant (Kd) of 3.5 nM, the koff is 0.00079 s⁻¹ and the kon came out at 230000 M⁻¹ s⁻¹.
On the same counts, the results for B29 are 10 nM, 0.0019 s⁻¹ and 190000 M⁻¹ s⁻¹.
For B30 the same measures were 2.5 nM, 0.00063 s⁻¹ and 250000 M⁻¹ s⁻¹.
On the same counts, the results for B31 are 8.3 nM, 0.0014 s⁻¹ and 160000 M⁻¹ s⁻¹.
B32 yielded an equilibrium dissociation constant (Kd) of 4 nM, a koff of 0.00074 s⁻¹ and an on-rate constant (kon) of 190000 M⁻¹ s⁻¹.
B33 returned a Kd of 4.2 nM, a koff of 0.001 s⁻¹ and an on-rate (kon) of 240000 M⁻¹ s⁻¹.

In a further test the target is T1, AFP158/HLA-A*02:01 complex. Nature of the test: SPR, fold vs AS170036 VL1VH1.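 Note: crude scFv muteins immobilised on a sensor chip, peptide–MHC complex passed over at several concentrations, binding then buffer-driven dissociation, KD estimated from on- and off-rates.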
Experimental: The experiment was carried out as follows. The crude scFv protein were captured onto the sensorchip. Different concentrations (320, 160, 40 nM) of AFP158/HLA-A*02:01 complex flowed over the sensorchip surface, and were allowed to bind the antibody fragment for 100 s followed by injection of the running buffer to allow dissociation of the complex. On-rate (kd) and off-rate (kd) were calculated based on association and dissociation curve, and were used to estimate the equilibrium dissociation constant (KD).
The crude scFv muteins were then subjected to SPR affinity measurement by the method mentioned above.
The molecule B1 gave an Affinity increase of 17.6 fold.
The same measure, in the same setting: as for B2, the figure is 80.4 fold.
Same read-out and setting: as for B3, the figure is 58.7 fold; as for B4, 152 fold; as for B5, 81.5 fold.
For B6, the Affinity increase amounted to 45.9 fold.
On the same count and under the same terms, to B7 belongs 39.1 fold.
Still for that read-out and setting: to B8 belongs 66.2 fold; to B9, 20.8 fold.
Still for that read-out and setting: as for B10, the figure is 62 fold; as for B11, 26.4 fold; as for B12, 54.5 fold.
As for B13, the Affinity increase is 67.4 fold.
Still for that read-out and setting: to B14 belongs 146 fold.
Still for that read-out and setting: as for B15, the figure is 183 fold; as for B16, 128 fold.
Regarding B17, the Affinity increase came out at 38.7 fold.
Still for that read-out and setting: to B18 belongs 124 fold; to B19, 44.4 fold; to B20, 142 fold.
Still for that read-out and setting: as for B21, the figure is 52.6 fold; as for B22, 67.6 fold.
Same read-out and setting: as for B23, the figure is 212 fold.
With B24, the Affinity increase stood at 56.3 fold.
Molecule B25 returned an Affinity increase of 110 fold.
On the same count and under the same terms, to B26 belongs 122 fold.
Still for that read-out and setting: to B27 belongs 21 fold.
Same read-out and setting: to B28 belongs 64.3 fold.
In turn, B29 yielded an Affinity increase of 22.3 fold.
Same read-out and setting: to B30 belongs 90.7 fold.
Still for that read-out and setting: to B31 belongs 27 fold; to B32, 56.3 fold.
Consider B33, for which the Affinity increase amounted to 54.1 fold.

For the origin of these results see US20240279318A1 (NANJING LEGEND BIOTECH, published 2024).
